{
  "source": "paper PMC2935386",
  "about": "“Dissecting the Relation between a Nuclear Receptor and GATA: Binding Affinity Studies of Thyroid Hormone Receptor and GATA2 on TSHβ Promoter” (PLoS ONE, 2010)",
  "binders": {"B1": {"name": "fluorescein-labelled zinc finger region of GATA2 (GATA2-Zf), residues 291-412 (domain or fragment)", "chain": "not shown", "modifications": "fluorescein (fluorescein-isothiocyanate, three times molar excess; site not stated)", "notes": "GATA2, zinc finger region, residues 291-412; removal of the His tag is surmised from that; Two vectors are named (pET31a, pET28a(+)); also called fluorophore-labelled GATA2-Zf; fluorescein-labeled GATA2-Zf"}},
  "molecular_target": "T1, human TRβ1ΔAB (TR DBD-LBD), thyroid hormone receptor β1 residues 102-461 (human, UniProt P10828-1 102-461)",
  "T1 construct": "Holo form (T3/TR) made by adding T3 in 3 times molar excess; also called TR DL; TRβ1 DL",
  "T1 sequence (looked up)": "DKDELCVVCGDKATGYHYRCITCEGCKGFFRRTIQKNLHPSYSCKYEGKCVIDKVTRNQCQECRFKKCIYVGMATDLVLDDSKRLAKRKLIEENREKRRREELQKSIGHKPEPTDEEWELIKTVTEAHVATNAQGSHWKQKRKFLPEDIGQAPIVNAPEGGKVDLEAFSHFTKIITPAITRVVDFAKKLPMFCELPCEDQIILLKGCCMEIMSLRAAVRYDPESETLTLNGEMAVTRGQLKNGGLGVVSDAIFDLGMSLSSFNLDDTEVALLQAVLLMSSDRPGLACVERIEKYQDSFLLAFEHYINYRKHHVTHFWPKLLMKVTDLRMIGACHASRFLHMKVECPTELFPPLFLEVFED",
  "test": "fluorescence polarisation; fluorescence anisotropy; 10nM fluorescein-labeled GATA2-Zf titrated with unlabeled, unliganded TR DBD-LBD or TR DBD, 1nM to 10.000nM; 10°C, 50mM NaCl, 20mM Hepes pH8.0, 3mM dithiothreitol, 5% glycerol",
  "settings": "both partners purified",
  "data": [
    {"binder": "B1", "values": [
      {"measurement": "Kd", "value": 1170, "unit": "nM"}
    ]}
  ]
}
